Reference: the nanobody polyreactivity screen of Harvey et al. (2022)

Experiment: yeast display, Sf9 membrane polyspecificity reagent, FACS + sequencing; frameworks hold sequencing errors
Procedure, shortened: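 Synthetic nanobody libraries on Saccharomyces cerevisiae BJ5465 were galactose-induced for 36–48 hours, stained 1 hour at 4 °C with 10% biotinylated, detergent-solubilized Sf9 membrane reagent and enriched on streptavidin microbeads. FACS then separated cells into low and high (top ~1%) gates by anti-HA (expression) and streptavidin (reagent binding) fluorescence. Genes were colony-PCR amplified, MiSeq 2 × 250 sequenced and CDR-length filtered. A clone's polyreactivity label is that of its gate of origin.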

Sequence	polyreactivity (PSR sort gate)
QVQLVESGGGLVQAGGSLRLSCAPSGFTFLWYAMGWYRQAPGKERELVAGISSDGSTNADSVKGRFTISRDNAKNTVYLQMNSLKPEDTAVYYCDADYSSPWQAVQGDDYWGQGTQVNVSS	low polyreactivity
QVQLVESGGGLVQAGGSLRLSCAASGITFIYYAMGWYRQAPGKEREFVAAITFRDGDTYYADSVKGRFTISRDNAKNTVYLQMNSLKPEDTAVYYCADTYWVYYYYPGYDYWGQGTQVTVSS	low polyreactivity
QVQLLETGGGLVQAGGSLRLSCAPSGSTFYYYAMGWYRQAPGKEWELVAAISWSGVSTYYADSVKGRFTISRDNAKTTVYLQMNSLKPEDNAVYYCNADSYTLYGRYDYWGQGTQVTVSS	low polyreactivity
QVKLVESGGGLVQAGGSLRLSCAASGSTYHSNAMGWYRRAHGKEMEFVASISIGGSTNYADSVKGRYTISRDNAKNTVYLQMNSLKAEDTAVYYSATEPNPRRPRVDYDYWGQGTQVTVSS	low polyreactivity
QVQLVESGGGLVQAGGSLRLSCAASGNMFYANAMGWYRQAPGKERELVAAISGSVCSTYADSVKGRFTISRDNAKNTVYLQMNSLKPEDTAVYYCNASVLDAIFYKSVGYDYWGQGTQVTVSS	low polyreactivity
QVQLVESGGGLVQAGGSLRLSCAASGRIYRGNTKGWYRQAPGKERELVAAITRGGSTSYADSVKGRFTISRDNAKNTVYLQMMSLKPEDTAVYYCATRTHGEGTRRDSWGQGTQVTVSS	low polyreactivity
QVQLVESGGGLVQAGGSLRLSCAASGRIFWYYAMGWYRQAPGKERELVARISSSGGSTYYADSVKGRFTISRDNAKNTVYLQMNSLKPEDTAVYYCAAEHYILYDYLWAYDYWGQGTQVTVSS	high polyreactivity
QVQLVESGGGLVQAGGSLRLSCAASGSIFTYYAMGWYRQAPGKEREFVAAINRSGGSTYYADSVKGRFTISRDNAKYTVYLQMNSLKPEDTAVYYCAARRGSGALRYNYWGQGTQVTVSS	high polyreactivity
QVQLLESWGGLVQAGGSLRLSCAASGFIFRGYAMGWYRQAPGKDRELVAAISTGGGRTYYADSVKGRFTISRDNAKNTVYLQMNSLKPDDTAVYYCIRRSYTQVLMDYWGQGTQVTVSS	high polyreactivity
QVQLVESGGGLVQAGGSLRLTCADSGSIFYYYGMGWYRQAPGKERELVASITQSGVSTYYADSVKGRFTISRDNANNSVYLQMNSLKPEYTAVYYCAAGTVSGVDYWGQGTQVTVSS	high polyreactivity
QVQLVESGGGLVQAGGSLRLSCAASGRIIGSYAMGWYRQAPGKERELVAAISRGGITNYADSVKGRFTIARDNAKNTVYLQMNSLKPEDTAVYYCAVGIRYRGRQGYYGYYTYDYWGQGTQVTVSS	high polyreactivity
QVQLVESGGGLVQAGGSLRLSCAASGRTFLTYVMGWYRQAPWKERELVAAITRGGRTNYADSVKGRFTISRDNAKNTVYLQMNSLKPEDTAVYYCARDDTPRYDYWGQGTQVTVSS	low polyreactivity
QVQLVESGGGLVQAGGSLRLSCAASGSTFSHYAMGWYRQAPGKERELVATITGTGVRTYYADSVKGRFTISRDNAKNTVYLQMNSLKPEDTAVYYCAVPPSKRGAQAQPWMDYWGQGTQVTVSS	low polyreactivity
QVQLVESGGALVQAGGSLRLSCAASGYTFSKNTMGWYRQAPGKEREFVAAINWSGGSTYYADSVKGRFTISRDNEKNTVYLQMNSLKPEDTAVYYCAARRGGRRGYDYWGQGTQVTVSS	high polyreactivity
QVQLVETRGGLVQAGGSLRLSCAASGSIFRTNVMGRYRQAPGKERELVAAISRRGGSTYYADSVKGRFTISRDNAKNTVYLQMITLKPEDTAVYYCAASSSAYRDDYWGQGTQVTVSS	high polyreactivity
QVQLGESGAGIVQAGGSLRLSCAASGSTFQTYAMGWYRQAPGKERELVAAITWRGGSTYYAHSVKGRFTISRDNAKNTVYLQMNSLKPEDTAVYYCAAKWLGAHDHRAAYDSWGQGTQVTVSS	low polyreactivity
QVHLVESGGGLVQAGGSLRLRCAASGIIFRRYAMGWYRQAPGKESEFVAAIRYTGGGTYYADSVKGRFTISRDNAKNTVYLQMNSLQPEDTAVYYCAASSRVSKSHLYGYWGQGTQVTVSS	high polyreactivity
